Source: WO2010064456A1

Biological target: T1, rhNR10 (human) (UniProt Q8NI17)
T1 sequence (looked up): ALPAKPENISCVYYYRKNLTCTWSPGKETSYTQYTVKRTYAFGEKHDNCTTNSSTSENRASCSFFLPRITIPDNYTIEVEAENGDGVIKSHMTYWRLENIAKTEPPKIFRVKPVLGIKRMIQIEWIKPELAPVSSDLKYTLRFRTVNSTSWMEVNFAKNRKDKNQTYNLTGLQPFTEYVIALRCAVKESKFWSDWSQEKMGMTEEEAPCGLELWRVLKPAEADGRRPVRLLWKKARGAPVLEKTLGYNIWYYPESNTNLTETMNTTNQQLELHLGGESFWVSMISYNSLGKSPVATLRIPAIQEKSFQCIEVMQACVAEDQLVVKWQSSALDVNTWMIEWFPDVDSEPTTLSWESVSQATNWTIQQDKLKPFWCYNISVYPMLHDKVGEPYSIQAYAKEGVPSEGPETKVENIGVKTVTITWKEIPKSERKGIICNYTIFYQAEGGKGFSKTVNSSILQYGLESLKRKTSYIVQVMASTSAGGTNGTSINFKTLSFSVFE
Test: SPR (Biacore T100), antibody captured on Protein A, rhNR10 as analyte; reference H0L0 (H0-M58/L0)

B1: H0L12 (H chain H0-M58, L chain L12) (antibody, V domains shown)
VH: QVQLVQSGAEVKKPGASVKVSCKASGYTFTGYIMNWVRQAPGQGLEWMGLINPYNGGTSYNQKFKGRVTITADESTSTAYMELSSLRSEDTAVYYCARDGYDDGPYTMDYWGQGTLVTVSS
VL: DIQMTQSPSSLSASVGDRVTITCQTSEDIYSFVAWYQQKPGKAPKLLIYNAQTEAQGVPSRFSGSGSGTDFTLTISSLQPEDFATYYCQHHYDSPLTFGGGTKVEIKR
fold affinity against H0L0: 2 fold
